Experimental data: the DeepSol protein solubility set

assay: soluble on expression in E. coli; label from the status in PepcDB or PDB records

| Sequence | soluble on expression in E. coli |
| --- | --- |
| MSLKPFSEPIIRCAKARAYRIPTDRPEADGTFAWTDTTIVVATLDAGDAHGIGYTYTDASAAALIERMLAPALDGRSAFDIGGALAALRRAVRNVGRGGVAATAISALDAALWDAKAKLLGLPLAKLLGGVRDAVPVYGSGGFTSYDEHALRAQLEGWRAQGLHACKIKVGSAPRDDPARVRIARDALGGGVALFVDANGAFAPHDALAFAQRIAECDVRWFEEPVSADDIDGLRFVRERLAAGVDVAAGEYGYTLDDFRVLLASGALDVLQADATRCGGVSGFLEAATLADAFHRDLSAHCAPALHRHVCCAAPRVRHVEWFHDHARIERMLFDGAPTPRDGAIAPDMSRPGLGIELKAQDAARFAVEGHHHHHH | not soluble |
| MSLKPLADRIRPENFNEVFGQKHIIGEGKILDRILKSSLVPNMIFYGPPGTGKTTVANIIAKKTNKAFYKLNATTASVKDVREITDSTNTLMGRNGVLLYLDEIQNFNKKQQQSLLEFMENGSITLIASTTENPYFYVYNAILSRSTIFEFKPLESDELMKAVNRAVELIKDELKTTEIIITEDAKKYAVGVSSGDVRKTLNSIEIAVYSTKPNEEGNIFIDLETMKECTQKNVLNFDKDGDNHYDILSAFQKSIRGSDADAAVLYLAMLIKGGDLKSICRRLLVIAAEDIGLAYPQAISIVKACTDSALELGFPEARIPLAEAVILLATSPKSNSAITAVDSALRDLDTINVGSIPDYLRDGHYEGAKKLGRMQDYKYPHSYENNYVKQKYLPSNLENRRYYEYGKNKIEEKCREYWERIKEGHHHHHH | soluble |
| MSLKPLAYRMRPTKIEDIIGQQHLVAEDKIIGRMVQAKHLSSMILYGPPGIGKTSIATAIAGSTSIAFRKLNAVINNKKDMEIVAQEAKMSGQVILILDEVHRLDKGKQDFLLPYLENGMIILIGATTANPYHAINPAIRSRTQIFELEPLTPELIKQALERALHDEHRGLGTYSVSIDDQAMEHFAHGCGGDVRSALNALELAVLSTKESADGEIHITLETAEECLQKKSFSHDKDGDAHYDVLSAFQKSIRGSDANAALHYLARLIEAGDLESIARRLLVIAYEDIGLASPQAGPRVLNAIQTAERVGFPEARIPLANAVIELCLSPKSNSAILAIDEALADIRAGKIGDVPKHLKDAHYKGAQELGRGIDYKYPHNYDNGWVEQQYLPDPLKNKQYYKPKQTGKFESALKQVYDKLMKGIITITTDPNSSSVDKLAAALEHHHHHH | soluble |
| MSLKPVMIIQFSASEGPGHFGDFLAGEHIPFQVLRMDRSDPLPAEIRDCSGLAMMGGPMSANDDLPWMPTLLALIRDAVAQRVPVIGHCLGGQLLAKAMGGEVTDSPHAEIGWVRAWPQHVPQALEWLGTWDELELFEWHYQTFSIPPGAVHILRSEHCANQAYVLDDLHIGFQCHIEMQAHMVREWCSISPEELKGGAEADPAQPMVQSAVEILRDLDVRIATLNRWAEHVYARWIKGLQREGHHHHHH | soluble |
| MSLKPWLLMMLTTLLVGCGGTPQPKVSFYLLPNNPELSEHIQPKTLPLLVVQPVELAAYLDTQGIVYRQSETQVIQARQNQWAQRLSPQLTQRITNDLRRKQSRYWPAPLNASSIQQEHWKLQVRLQRFNGVYTGNAEVAGNWELLNPKGESMLNQEFSFQVPLKDTGYPALVEALSAGVDQLSTQIETQLVTREGHHHHHH | soluble |
| MSLKQEKLALVESALEDFYGDQQFASSLRESVLYSIHAGGKRIRPFLLLEVLEALQVTIKPAHAQVATALEMIHTGSLIHDDLPAMDDDDYRRGRLTNHKKFGEAMAILAGDALFLDSYALIAQADLPSQIKVDLIANLSLASGSLGMVAGQVLDMEGEHQHLSLEELQTIHANKTGKLLAYPFQAAAIIAELSPEMQVKLKTVGELIGLAFQVRDDVLDVTASFEEIGKTPQKDLQAEKSTYPALLGLEESIAFCNQTLDQANEKLEEIAQQLPFETESIVSVVESLRINGEGHHHHHH | soluble |
| MSLKQKILIVEDSLTIRRMLIQAIAQQTGLEIDAFDTLEGARHCRGEEYVVALVDLTLPDAPSGEAVKVLLERGLPVVILTADISEEKRAAWLEAGVLDYVMKDSRHSLQYAVSLVHRLYLNQRIEVLVVDDSRTSRHRTMAQLRKQLLQVHEASHAREALAQLEQNPAIRLVLVDYYMPEIDGISLVRMLRERYSKQQLAIIGISVSDKRGLSARYLKQGANDFLNQPFEPEELQCRVSHNLEALEQFNSIQESANRDYLTGLYNRRYWFNEGQKWFEEHQRQETPLALCVLDVDHFKQVNDHWGHAIGDQLLCHLTRLLTQFFPDAMIARFGGEEFALMVPHCTVPVLLKRLEGLRQQMRQQPLSRETPLFVRASFGVIKVGRGSMDEALSEADRLLYQAKNTGRDKIVSQDSSEGHHHHHH | soluble |
| MSLKQPTSTTVTRTDYLKHKVKVPKHPKRIVASYLEDDLVALGIKPVVQWSVKNGSGTQAYLKEQLKGVPLIDYSLPYEAVTKAKPDLILIGTSSAVANGKYAQYNKIAPTYVVKNGTTVTWRQTFLDVAKVVNRQAKAKKVLAKYDKQVQTTRQALKKSGQHKVAVLWVTNNTAYMVNDNSASGALLYQDLQLGEPSLVKQVSKSATADWSAVSLEKLAKLDADDIFLVNSQKSASLFKDPLWKNIKAVKNNHLYQYGDSSSWQYSGPIAYSQMIDMVKTDLLKEGHHHHHH | soluble |
| MSLKRAIIIGATSGIGKEVAQRLLSEGWQIGIAGRRQSALEEFRQIAPEQIKIQSLDVTQEYSAGKLDALIHQLGGMDLFLLSSGIGFQNMELNMEIELNTARTNVEGFTRMVDTAFSYFRNNGGGHLAVISSIAGTKGLGVAPAYSATKRFQNTYIDALEQLSHLQKLDIHFTDIRPGFVATDLLNDGKHYPMLMKTDQVGRDIVRALHRKQRVAIIDGRYRILVFFWRMIPRWIWKRLPVKTEGHHHHHH | soluble |
| MSLKRAVISGGAGGLGRALSDALQTRGWHVTLLDRDISAIEPSETQRVIQCDLTDPGQLAAACALAIGPQGVDLAVYNAGITQIGLFADSDEASHRRVFEINYFAAVNMARAMLGPVRQARGTHLAISSVAGFAPLYSRTSYAASKHALEGFFKSLRSEERAHGVAVQIAAPSFVATNLGNAQAQPDGIARPGSATDGMDYMTPEAAAATILRGLDRGRDMIPVGRVARLAWWINRLSPGLYQRLMESKIGREGHHHHHH | soluble |
| MSLKRKYEDHFKEQAVRLSFERGEISSVERELGINRTSLGKWRKKYEHLKLAPKDAVIIELNKKIKDSLLTLEILKNGSEFAAQGKVMTKRFIENNSSKYPIGKMCALLQISQRAYYKLKKKEISDKQSQIILLKEEVAAVYYEFKKTYGYRKIAKVLQCRGFKVGESQIRIYMNALGLRRRAKSRFTITTDSVHNHYIAQNILNREFTINQPAKAWVSDITYIAAEKGFLYLTIVLDLFDRKIIGWSLADSMSTKETTLPAWEMAVKNRNITQDLIFHSDRGVQYANKIFTETLDSYKFVRRSMSRKQNHNDNAVSESFFGNLKRELINGNKPLPREQMRVQVYQYIENWYNKKRRHSYLNYRTIEEFDKLHEGHHHHHH | not soluble |
| MSLKRVLLLGGAGFIGYHLGRHLVERSDCRVTLVDNFFRSKQDEELDTLLQSSAVDIVEGDLTERSTFDQLDDEYDHVYALAAVVGVGYTEDMPEEVWRINTAITLNTFEWLRESSVSRVLFASTSETYAGTVEEFGAEIPTPEDVPLSITDITQPRFTYAVTKMLGEAGIAHYAQAYDFEQVTVRFHNVYGPRMGFKHVIPQVVERFHEAEDPFTVYGYDQTRAFCHVDDAVRGVVQAMETPEAAGRTYHIGDDRHEITIETLIRYIGDLMDFHGEYEQGPSHAGSVSRRCPDVDRAREVFGYEPQVHWKEGVRETVEWYADYYRSGREVFEEGHHHHHH | soluble |
| MSLKSKVLVIDDEPDIRELLTLTLSRMGLICDAVSDFKQGIEHIKQNYYSLVLTDMRLPDGDGIEIVKFIQKYKPQLPVAVITAYGNVEGAVNTLKAGAFDYVSKPVDLKMLRELVKTALSMQNPSTESPDEGLLVGESLIMQQLRESIHKLARSQAPVFIQGDSGVGKELVAQLIHANGPRKDKPFIPVNCGAIPGELMESEFFGHKKGSFTGAISDKTGLFVAAHGGTLFLDEIAELPLAMQVKLLRAIQEKAIKPIGELYEIPVDVRILSASHKNLIEEINAGRFRQDLYYRINVIELRVPTLMERLSDIPCLTEAILKKLSKNQNRNLVKINPSCFEILSRYHFPGNVRELENILERAMAMCEGEVIEPSEGHHHHHH | soluble |
| MSLKSLEIFSGAGGLAKGLELAGFQHASFIELNKDACNSLRSNFNPKLVYQGDVADFDLSSQEGIEVIAGGPPCQPFSLGGKHLAHEDRRDMFPHAVRYVEYYRPKAFIFENVKGLLRKSFADYFEYILLRLTYPNLGILQNEDWKGHLTRLKEIEFNLYKGIKYKVSYQLLNAADYGVPQKRERVVIVGIRADLDIDWKFPKRTHSEDRLNWEKYVTGEYWEKHNEPKRFNKDIAEKLQKKYGIFEPEKKPWQTVRDTLSDIPHPLGNHKITGHEYRDGARIYPGHTGSGIDEPSKTIKAGGHGVPGGENMIRYDDGTVRYFTSYEAKLLQTFPEEFVISGAWGEAMRQIGNAVPVKLSEILGKHLMGVLSEKSSLHNEGHHHHHH | soluble |
| MSLKSLSYKRIYKSQEYLATLGTIEYRSLFGSYSLTVDDTVFAMVSDGELYLRACEQSAQYCVKYPPVWLTYKKCGRSVTLNYYRVDESLWRNQLKLVRLSKYSLDAALKEKSTRNTRERLKDLPNMSFHLEAILGEVGIKDVRALRILGAKMCWLRLRQQNSLVTEKILFMLEGAIIGIHEAALPVARRQELAEWADSLTPKQEFPAELEEGHHHHHH | soluble |
| MSLKTGRTNTIVVLVPNLINPFFMRIIGGIEQAAQERGFTVLLCDTQGESKRESDYASMVLTNRADGLIQLDHSFPFTEDDAKLAETIPMVSVCERIHSDKKYPVVALDNYAASRALAHHLVSYGHTKFAVIVGQVVSQIHKDRLYGLRSVLAEEDIEFDEDMIVGQSYSIENGIEGMRQLLEKPNRPSAVICFNDDIAIGAMHEIHRQGLRVPEDISVVGFDNVKVAAFMNPPLTTIDQPAYEMGRRGMEILSDVINGVPLTRSSEMLPFQLLERESSGEGHHHHHH | not soluble |
| MSLKTKQEIVENWLPRYTQRQLIDFEPYILLTNFSHYLHVFAEHYGVPIVGEHTSMPNASAEGVTLINFGMGSANAATIMDLLWAIHPKAVIFLGKCGGLKLENALGDYLLPIAAIRGEGTSNDYLPEEVPSLPSFSVLRAISSAIQNKGKDYWTGTVYTTNRRVWEYDEKFKDYLRSTHASGVDMETATLMTVGFANKIPMGALLLISDRPMFPEGVKTEESDQLVTDNFAEEHLMLGIDALEIIRENKSSIKHIRFNWEGHHHHHH | soluble |
| MSLKTLTRFLIIPMLSVAFFSCSESHFLKDVAYRNQVTQDFEMKKQQLPNGELFAVFNEKLTIPEQEALMFLYAYMPTGDVTDYTGDYYLENVRLSDQARREMPWGKEIPDDVFRHFVLPIRVNNENLDDSRRVFYNELKDRVKNLSLHDAVLEVNHWCHEKVIYTPSDARTSAPLASVKTAYGRCGEESTFTVAALRSVGIPARQVYTPRWAHTDDNHAWVEAWVDGKWYFFGACEPEPVLNLGWFNAPASRGMLMHTKVFGRYTGEGHHHHHH | not soluble |
| MSLKTTFLEFEQPIAELEAKIEELRFVQDDSAVDISEEISRLAAKSQQLTKDLYATLSPWQVAQIARHPQRPYTLDYVREIFTDFHELHGDRTFADDLSIVGGLARFNGQPCMVIGHQKGRDTKERALRNFGMSKPEGYRKAKRLMELADKFGLPIFTFVDTPGAFPGIEAEERGQSEAIGHNLFVMAGLKVPLIATIIGEGGSGGALAIAVGDSVIMLQFATYAVISPEGCASILWKTAEKAPEAAEALGLTAHRLKALGLIDKIVNEPLGGAHRDPKAMATMLKRALAESLRQFQGMKTSELQARRHERLMAYGKFKETGSNEGHHHHHH | not soluble |
